From the supplement of paper PMC11246515
± gives the standard deviation of the averaged measurements.

Test: total protein half-life in vivo (active degradation + dilution); higher = more stable protein
[1] = E. coli NCM3722 delta-clpP delta-lon delta-hslV, growth: N-lim chemostat, doubling time 6 h
[2] = E. coli NCM3722 delta-hslV, growth: N-lim chemostat, doubling time 6 h
[3] = E. coli NCM3722 delta-lon, growth: N-lim chemostat, doubling time 6 h
[4] = E. coli NCM3722 delta-smpB, growth: N-lim chemostat, doubling time 6 h
[5] = wild type E. coli NCM3722, growth: C-lim chemostat, doubling time 12 h
[6] = wild type E. coli NCM3722, growth: N-lim chemostat, doubling time 6 h
[7] = wild type E. coli NCM3722, growth: N-lim chemostat, doubling time 12 h
[8] = wild type E. coli NCM3722, growth: P-lim chemostat, doubling time 6 h
[9] = wild type E. coli NCM3722, growth: P-lim chemostat, doubling time 12 h
[10] = E. coli NCM3722 delta-clpP, growth: N-lim chemostat, doubling time 6 h
[11] = wild type E. coli NCM3722, growth: C-lim chemostat, doubling time 6 h
[12] = wild type E. coli NCM3722, growth: C-lim chemostat, doubling time 3 h

Sequence | total protein half-life in vivo [1] [h] | total protein half-life in vivo [2] [h] | total protein half-life in vivo [3] [h] | total protein half-life in vivo [4] [h] | total protein half-life in vivo [5] [h] | total protein half-life in vivo [6] [h] | total protein half-life in vivo [7] [h] | total protein half-life in vivo [8] [h] | total protein half-life in vivo [9] [h] | total protein half-life in vivo [10] [h] | total protein half-life in vivo [11] [h] | total protein half-life in vivo [12] [h]
MAATKPAFNPPGKKGDIIFSVLVKLAALIVLLMLGGIIVSLIISSWPSIQKFGLAFLWTKEWDAPNDIYGALVPIYGTLVTSFIALLIAVPVSFGIALFLTELAPGWLKRPLGIAIELLAAIPSIVYGMWGLFIFAPLFAVYFQEPVGNIMSNIPIVGALFSGPAFGIGILAAGVILAIMIIPYIAAVMRDVFEQTPVMMKESAYGIGCTTWEVIWRIVLPFTKNGVIGGIMLGLGRALGETMAVTFIIGNTYQLDSASLYMPGNSITSALANEFAEAESGLHVAALMELGLILFVITFIVLAASKFMIMRLAKNEGAR [P0AGH8] | 5.52 ± 1 | 5.62 ± 0.46 | 5.31 ± 1.4 | 5.08 ± 0.47 | 15.4 | 3.42 | 12.1 | 5.49 ± 0.25 | 11.4 ± 0.52 |  |  | 
MACGEFSLIARYFDRVRSSRLDVELGIGDDCALLNIPEKQTLAISTDTLVAGNHFLPDIDPADLAYKALAVNLSDLAAMGADPAWLTLALTLPDVDEAWLESFSDSLFDLLNYYDMQLIGGDTTRGPLSMTLGIHGFVPMGRALTRSGAKPGDWIYVTGTPGDSAAGLAILQNRLQVADAKDADYLIKRHLRPSPRILQGQALRDLANSAIDLSDGLISDLGHIVKASDCGARIDLALLPFSDALSRHVEPEQALRWALSGGEDYELCFTVPELNRGALDVALGHLGVPFTCIGQMTADIEGLCFIRDGEPVTLDWKGYDHFATP [P0AGG0] | 5.68 ± 0.31 | 5.14 ± 1.4 |  | 3.99 ± 0.23 | 10.2 ± 1 | 4.17 ± 0.23 | 7.02 ± 0.95 | 5.41 ± 0.33 | 12.1 ± 0.31 | 4.97 ± 0.5 | 5.41 ± 0.077 | 
MADILLLDNIDSFTYNLADQLRSNGHNVVIYRNHIPAQTLIERLATMSNPVLMLSPGPGVPSEAGCMPELLTRLRGKLPIIGICLGHQAIVEAYGGYVGQAGEILHGKASSIEHDGQAMFAGLTNPLPVARYHSLVGSNIPAGLTINAHFNGMVMAVRHDADRVCGFQFHPESILTTQGARLLEQTLAWAQQKLEPANTLQPILEKLYQAQTLSQQESHQLFSAVVRGELKPEQLAAALVSMKIRGEHPNEIAGAATALLENAAPFPRPDYLFADIVGTGGDGSNSINISTASAFVAAACGLKVAKHGNRSVSSKSGSSDLLAAFGINLDMNADKSRQALDELGVCFLFAPKYHTGFRHAMPVRQQLKTRTLFNVLGPLINPAHPPLALIGVYSPELVLPIAETLRVLGYQRAAVVHSGGMDEVSLHAPTIVAELHDGEIKSYQLTAEDFGLTPYHQEQLAGGTPEENRDILTRLLQGKGDAAHEAAVAANVAMLMRLHGHEDLQANAQTVLEVLRSGSAYDRVTALAARG | 3.96 ± 0.42 | 2.96 ± 0.18 | 3.02 ± 0.12 | 2.769 ± 0.019 | 10.4 ± 1.9 | 3.01 ± 0.27 | 3.72 ± 0.29 | 6.54 ± 1.6 | 12.2 ± 3.9 | 3.018 ± 0.0036 | 4.79 ± 0.1 | 3.23 ± 0.33
MADKKLDTQLVNAGRSKKYTLGAVNSVIQRASSLVFDSVEAKKHATRNRANGELFYGRRGTLTHFSLQQAMCELEGGAGCVLFPCGAAAVANSILAFIEQGDHVLMTNTAYEPSQDFCSKILSKLGVTTSWFDPLIGADIVKHLQPNTKIVFLESPGSITMEVHDVPAIVAAVRSVVPDAIIMIDNTWAAGVLFKALDFGIDVSIQAATKYLVGHSDAMIGTAVCNARCWEQLRENAYLMGQMVDADTAYITSRGLRTLGVRLRQHHESSLKVAEWLAEHPQVARVNHPALPGSKGHEFWKRDFTGSSGLFSFVLKKKLNNEELANYLDNFSLFSMAYSWGGYESLILANQPEHIAAIRPQGEIDFSGTLIRLHIGLEDVDDLIADLDAGFARIV | 4.64 ± 0.42 | 3.95 ± 0.2 | 6.18 ± 0.7 | 4.33 ± 0.2 | 9.28 ± 0.72 | 4.28 ± 0.085 |  | 6.1 ± 0.46 | 12.1 ± 1.6 | 4.43 ± 0.49 | 4.76 ± 1.1 | 3.36 ± 0.33
MADLDDIKDGKDFRTDQPQKNIPFTLKGCGALDWGMQSRLSRIFNPKTGKTVMLAFDHGYFQGPTTGLERIDINIAPLFEHADVLMCTRGILRSVVPPATNRPVVLRASGANSILAELSNEAVALSMDDAVRLNSCAVAAQVYIGSEYEHQSIKNIIQLVDAGMKVGMPTMAVTGVGKDMVRDQRYFSLATRIAAEMGAQIIKTYYVEKGFERIVAGCPVPIVIAGGKKLPEREALEMCWQAIDQGASGVDMGRNIFQSDHPVAMMKAVQAVVHHNETADRAYELYLSEKQ | 4.41 ± 0.29 | 3.03 ± 0.036 | 3.91 ± 0.79 | 3.6 ± 0.39 | 8.52 ± 0.53 | 3.58 | 4.43 ± 0.74 | 5.44 ± 0.21 | 11 ± 0.47 | 3.51 ± 0.53 | 5.1 ± 0.23 | 3.27 ± 0.084
MADRNLRDLLAPWVPDAPSRALREMTLDSRVAAAGDLFVAVVGHQADGRRYIPQAIAQGVAAIIAEAKDEATDGEIREMHGVPVIYLSQLNERLSALAGRFYHEPSDNLRLVGVTGTNGKTTTTQLLAQWSQLLGEISAVMGTVGNGLLGKVIPTENTTGSAVDVQHELAGLVDQGATFCAMEVSSHGLVQHRVAALKFAASVFTNLSRDHLDYHGDMEHYEAAKWLLYSEHHCGQAIINADDEVGRRWLAKLPDAVAVSMEDHINPNCHGRWLKATEVNYHDSGATIRFSSSWGDGEIESHLMGAFNVSNLLLALATLLALGYPLADLLKTAARLQPVCGRMEVFTAPGKPTVVVDYAHTPDALEKALQAARLHCAGKLWCVFGCGGDRDKGKRPLMGAIAEEFADVAVVTDDNPRTEEPRAIINDILAGMLDAGHAKVMEGRAEAVTCAVMQAKENDVVLVAGKGHEDYQIVGNQRLDYSDRVTVARLLGVIA | 5.09 ± 0.76 | 3.43 ± 0.23 | 4.497 ± 0.044 | 3.39 ± 0.23 | 9.05 ± 0.4 | 3.71 ± 0.04 | 6.39 ± 0.93 | 5.18 ± 0.14 | 8.724 ± 0.074 | 3.51 ± 0.15 | 5.8 ± 0.085 | 2.65 ± 0.31
MADTHHAQGPGKSVLGIGQRIVSIMVEMVETRLRLAVVELEEEKANLFQLLLMLGLTMLFAAFGLMSLMVLIIWAVDPQYRLNAMIATTVVLLLLALIGGIWTLRKSRKSTLLRHTRHELANDRQLLEEESREQ | 6.43 ± 0.14 | 7.19 ± 0.63 | 5.35 ± 1.2 | 6.49 ± 0.34 | 11 ± 0.91 | 6.27 ± 0.46 | 11.7 ± 3.4 | 4.39 ± 0.56 |  | 6.06 ± 0.94 | 5.36 ± 0.18 | 2.99 ± 0.26
MADWVTGKVTKVQNWTDALFSLTVHAPVLPFTAGQFTKLGLEIDGERVQRAYSYVNSPDNPDLEFYLVTVPDGKLSPRLAALKPGDEVQVVSEAAGFFVLDEVPHCETLWMLATGTAIGPYLSILQLGKDLDRFKNLVLVHAARYAADLSYLPLMQELEKRYEGKLRIQTVVSRETAAGSLTGRIPALIESGELESTIGLPMNKETSHVMLCGNPQMVRDTQQLLKETRQMTKHLRRRPGHMTAEHYW |  | 4.14 ± 0.33 | 4.64 ± 0.33 | 3.83 ± 0.12 | 10.8 ± 0.21 | 4.29 ± 0.31 | 6.73 ± 0.41 | 5.609 ± 0.031 | 11.3 ± 0.53 | 3.93 ± 0.36 | 5.62 ± 0.29 | 2.888 ± 0.0031
